Experimental data taken from US20120201781A1 (AbbVie / Abbott, published 2012).
Each block holds one binder with its values, some of them ahead of it.

What was measured:
[1] = molecular target: T1, recombinant human IL-1β (human, UniProt P01584 117-269); test: SPR (Biacore 3000), saturating binding
T1 construct: Recombinant protein; also called hIL-1β; rhIL-1β
Procedure: (§1) The association and dissociation rate constants, kon (M-1s-1) and koff (s-1) were determined under a continuous flow rate of 25 ml/minute. […] The equilibrium dissociation constant (M) of the reaction between DVD-Ig molecule and rhIL1α/β was then calculated from the kinetic rate constants by the following formula: KD=koff/kon. Aliquots of rhIL1α/β samples were also simultaneously injected over a blank reference and reaction CM surface to record and subtract any nonspecific binding background to eliminate the majority of the refractive index change and injection noise. Surfaces were regenerated with two subsequent […] injections of 10 mM Glycine (pH 1.5) at a flow rate of […]. The anti-Fc antibody immobilized surfaces were completely regenerated and retained their full capture capacity over twelve cycles. The apparent stoichiometry of the captured DVD-Ig-rhIL1α/β complex was calculated under saturating binding conditions (steady-state equilibrium) using the following formula: […]
(§2) The affinity of the two DVD-Ig binding proteins to hIL-1 as compared to the affinity of chimeric antibodies to hIL-1 was similar as indicated by the evaluation of the stoichiometry to IL-1. Both chimeric antibodies, being bivalent monospecific, bound to IL-1α and IL-1β on Biacore with a stoichiometry of 1.6 and 1.7, respectively. This is common for an IgG due to inter-molecular interference when antibodies are immobilized densely on the Biacore sense chip resulting in stoichiometry being in the range from 1.5 to 2.0.

[2] = molecular target: T2, recombinant human IL-1α (human, UniProt P01583 113-271); test: SPR (Biacore 3000), saturating binding
T2 construct: Purified recombinant protein bought from R&D Systems; also called hIL-1α; rhIL-1α
T2 sequence: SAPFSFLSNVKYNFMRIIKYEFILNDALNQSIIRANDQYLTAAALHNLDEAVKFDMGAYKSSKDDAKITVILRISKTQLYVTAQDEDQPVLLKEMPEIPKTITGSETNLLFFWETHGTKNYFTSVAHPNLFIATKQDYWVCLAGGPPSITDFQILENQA
Procedure: as §1, §2

[3] = molecular target: T1, recombinant human IL-1β; test: cell-based or functional assay
[4] = molecular target: T2, recombinant human IL-1α; test: cell-based or functional assay
[5] = molecular target: T2, recombinant human IL-1α; test: cell-based or functional assay; remark: listed apart in the source
[6] = molecular target: T2, recombinant human IL-1α; test: SPR (Biacore)
Procedure: (§3) The equilibrium dissociation constant (M) of the reaction between DVD-Ig molecule and rhIL1α/β was then calculated from the kinetic rate constants by the following formula: KD=koff/kon. Aliquots of rhIL1α/β samples were also simultaneously injected over a blank reference and reaction CM surface to record and subtract any nonspecific binding background to eliminate the majority of the refractive index change and injection noise. Surfaces were regenerated with two subsequent […] injections of 10 mM Glycine (pH 1.5) at a flow rate of […]. The anti-Fc antibody immobilized surfaces were completely regenerated and retained their full capture capacity over twelve cycles. The apparent stoichiometry of the captured DVD-Ig-rhIL1α/β complex was calculated under saturating binding conditions (steady-state equilibrium) using the following formula: […]
as §2

[7] = molecular target: T1, recombinant human IL-1β; test: SPR (Biacore), hIL-1β as 2nd antigen after hIL-1α
Procedure: (§4) In addition, tetravalent dual-specific antigen binding of DVD-Ig binding protein was also analyzed by Biacore (Table 14). DVD-Ig binding protein was first captured via a goat anti-human Fc antibody on the Biacore sensor chip, and the first antigen was injected and a binding signal observed. As the DVD-Ig binding protein was saturated by the first antigen, the second antigen was then injected and the second signal observed. This was done either by first injecting IL-1β then IL-1α or by first injecting IL-1α followed by IL-1β for DVD2-Ig binding protein. In either sequence, a dual-binding activity was detected. Similar results were obtained for DVD1-Ig binding protein. Thus, each DVD-Ig binding protein was able to bind both antigens simultaneously as a dual-specific tetravalent molecule. […] Upon the injection of the second antigen, while DVD-Ig binding protein was already occupied by the first antigen, the stoichiometry of both DVD-Igs binding protein to the second antigen (i.e., hIL-1α or hIL-1β was between 1.0 and 1.3. Thus, DVD-Ig binding protein was able to bind two IL-1α and two IL-β molecules. DVD-Ig binding protein was first captured via a goat anti-human Fc antibody on the Biacore sensor chip, and the first antigen was injected and a binding signal observed, followed by the injection of the second antigen.

[8] = molecular target: T1, recombinant human IL-1β; test: SPR (Biacore), hIL-1β as 1st antigen
Procedure: as §4

[9] = molecular target: T2, recombinant human IL-1α; test: SPR (Biacore), hIL-1α as 1st antigen
Procedure: as §4

[10] = molecular target: T1, recombinant human IL-1β; test: SPR (Biacore 3000), binder captured via goat anti-human IgG Fc
Procedure: (§5) Approximately, 5000 RU of goat anti-human IgG Fcγ fragment specific polyclonal antibody (Pierce Biotechnology Inc, Rockford, Ill.) diluted in 10 mM sodium acetate (pH 4.5) was directly immobilized across a CM5 research grade biosensor chip using a standard amine coupling kit according to manufacturer's instructions and procedures at […]. Unreacted moieties on the biosensor surface were blocked with ethanolamine. Modified carboxymethyl dextran surface in flowcell 2 and 4 was used as a reaction surface. Unmodified carboxymethyl dextran without goat anti-human IgG in flow cell 1 and 3 was used as the reference surface. For kinetic analysis, rate equations derived from the 1:1 Langmuir binding model were fitted simultaneously to association and dissociation phases of all ten injections (using global fit analysis) using the Bioevaluation 4.0.1 software. Purified DVD-Ig samples were diluted in HEPES-buffered saline for capture across goat anti-human IgG Fc specific reaction surfaces and injected over reaction matrices at a flow rate of […]. The association and dissociation rate constants, kon (M-1s-1) and koff (s-1) were determined under a continuous flow rate of 25 ml/minute. […] The equilibrium dissociation constant (M) of the reaction between DVD-Ig molecule and rhIL1α/β was then calculated from the kinetic rate constants by the following formula: KD=koff/kon. Aliquots of rhIL1α/β samples were also simultaneously injected over a blank reference and reaction CM surface to record and subtract any nonspecific binding background to eliminate the majority of the refractive index change and injection noise. Surfaces were regenerated with two subsequent […] injections of 10 mM Glycine (pH 1.5) at a flow rate of […]. The anti-Fc antibody immobilized surfaces were completely regenerated and retained their full capture capacity over twelve cycles. The apparent stoichiometry of the captured DVD-Ig-rhIL1α/β complex was calculated under saturating binding conditions (steady-state equilibrium) using the following formula: […]

[11] = molecular target: T2, recombinant human IL-1α; test: as above
Procedure: as §5

[12] = molecular target: T2, recombinant human IL-1α; test: SPR (Biacore), hIL-1α as 2nd antigen after hIL-1β
Procedure: as §4

[13] = molecular target: T2, recombinant human IL-1α; test: SPR (Biacore), saturating binding
[14] = molecular target: T2, recombinant human IL-1α; test: SPR (Biacore); remark: listed apart in the source
[15] = molecular target: T2, recombinant human IL-1α; test: cell-based or functional assay; remark: listed apart in the source
[16] = molecular target: T2, recombinant human IL-1α; test: SPR (Biacore), mAb captured via goat anti-mouse IgG
[17] = molecular target: T1, recombinant human IL-1β; test: SPR (Biacore), saturating binding
[18] = molecular target: T1, recombinant human IL-1β; test: SPR (Biacore)
[19] = molecular target: T1, recombinant human IL-1β; test: cell-based or functional assay; remark: listed apart in the source
[20] = molecular target: T1, recombinant human IL-1β; test: SPR (Biacore), mAb captured via goat anti-mouse IgG
[21] = molecular target: T1, recombinant human IL-1β; test: cell-based or functional assay; remark: listed apart in the source
[22] = molecular target: T1, recombinant human IL-1β; test: SPR (Biacore); remark: listed apart in the source
Procedure: as §3, §2

Stoichiometry [1]: 1.5 | Stoichiometry [2]: 1.8 | Potency (IC50) M, MRC-5 bioassay [3]: 3.1 nM | Potency (IC50) M, MRC-5 bioassay [4]: 2.3 nM | neutralizing activity in MRC-5 bioassay, fold less than the chimeric antibodies [5]: 3 fold | fold lower affinity than the chimeric 3D12.E3 antibody [6]: 2 to 3 fold | Stoichiometry hIL-1β:DVD-Ig [7]: 1 | Stoichiometry hIL-1β:DVD-Ig [8]: 1.5 | Stoichiometry hIL-1α:DVD-Ig [9]: 2.3 | Kd [10]: 2.6 nM | koff [10]: 0.00159 s⁻¹ | kon [10]: 609000 M⁻¹ s⁻¹ | Kd [11]: 2.83 nM | koff [11]: 0.000105 s⁻¹ | kon [11]: 37000 M⁻¹ s⁻¹ | Stoichiometry hIL-1α:DVD-Ig [12]: 1.1
B1: hIL-1α/β DVD1-Ig binding protein (bispecific antibody, human IgG1, kappa)
heavy: not shown
light: NIVLTQSPASLAVSLGQRATISCRASESVDSYGNSYMHWYQQKPGQPPKLLIYLASNLESGVPARFSGSGSRTDFTLTIDPVEADDAATYYCQQNNEDPFTFGSGTKLEIKRNIQMTQTTSSLSASLGDRVTISCRASQDISNCLNWYQQKPDGTVKLLIYYTSRLHSGVPSRFSGSGSGTDYSLTISNLEQEDIATYFCQQGKTLPYAFGGGTKLEINRRTVAAPSVFIFPPSDEQLKSGTASVVCLLNNFYPREAKVQWKVDNALQSGNSQESVTEQDSKDSTYSLSSTLTLSKADYEKHKVYACEVTHQGLSSPVTKSFNRGEC
notes: 13F5.G5 variable domains fused directly (no linker) to the N-terminus of 3D12.E3 variable domains, human Cγ1/Cκ

Potency (IC50) M, MRC-5 bioassay [4]: 0.67 nM | Stoichiometry [13]: 2 | Kd [14]: 1.11 nM | koff [14]: 0.000713 s⁻¹ | kon [14]: 643000 M⁻¹ s⁻¹ | IC50 (M), MRC-5 bioassay (inhibition of IL-8 production) [15]: 6.7e-10 M | Kd [16]: 1.11 nM
B2: murine monoclonal antibody 3D12.E3 (antibody, V domains shown)
VH: QIQLVQSGPELKKPGETVKISCKASGYTFRNYGMNWVKQAPGKDLKRMAWINTYTGESTYADDFKGRFAFSLETSASTAYLQINNLKNEDTATYFCARGIYYYGSSYAMDYWGQGTSVTVSS
VL: NIQMTQTTSSLSASLGDRVTISCRASQDISNCLNWYQQKPDGTVKLLIYYTSRLHSGVPSRFSGSGSGTDYSLTISNLEQEDIATYFCQQGKTLPYAFGGGTKLEINR
notes: Murine hybridoma mAb, anti-hIL-1α

Potency (IC50) M, MRC-5 bioassay [3]: 0.6 nM | Stoichiometry [17]: 1.8 | Kd [18]: 0.291 nM | koff [18]: 0.000621 s⁻¹ | kon [18]: 2.13e+06 M⁻¹ s⁻¹ | IC50 (M), MRC-5 bioassay (inhibition of IL-8 production) [19]: 6e-10 M | Kd [20]: 0.291 nM
B3: murine monoclonal antibody 13F5.G5 (antibody, V domains shown)
VH: QVQLQQSGAELVRPGSSVKISCKASGYAFSSYWMNWVKQRPGQGLEWIGQIYPGDGDTNYNGKFKGKATLTADKSSSTSYMQLSGLTSEDSAMYFCVRFPTGNDYYAMDYWGQGTSVTVSS
VL: NIVLTQSPASLAVSLGQRATISCRASESVDSYGNSYMHWYQQKPGQPPKLLIYLASNLESGVPARFSGSGSRTDFTLTIDPVEADDAATYYCQQNNEDPFTFGSGTKLEIKR
notes: Murine hybridoma mAb, anti-hIL-1β

Stoichiometry [1]: 1.8 | Stoichiometry [2]: 2 | Potency (IC50) M, MRC-5 bioassay [3]: 1.6 nM | Potency (IC50) M, MRC-5 bioassay [4]: 2.9 nM | neutralizing activity in MRC-5 bioassay, fold higher than DVD1-Ig [21]: 3 fold | neutralizing activity in MRC-5 bioassay, fold less than the chimeric antibodies [5]: 3 fold | fold higher affinity than DVD1-Ig binding protein [22]: 3 fold | fold lower affinity than the chimeric 3D12.E3 antibody [6]: 3 fold | Stoichiometry hIL-1β:DVD-Ig [7]: 1.3 | Stoichiometry hIL-1β:DVD-Ig [8]: 1.6 | Stoichiometry hIL-1α:DVD-Ig [9]: 1.8 | Kd [10]: 0.798 nM | koff [10]: 0.00095 s⁻¹ | kon [10]: 1.19e+06 M⁻¹ s⁻¹ | Kd [11]: 3.42 nM | koff [11]: 0.000252 s⁻¹ | kon [11]: 73500 M⁻¹ s⁻¹ | Stoichiometry hIL-1α:DVD-Ig [12]: 1.2
B4: hIL-1α/β DVD2-Ig binding protein (bispecific antibody, human IgG1, kappa)
heavy: not shown
light: NIVLTQSPASLAVSLGQRATISCRASESVDSYGNSYMHWYQQKPGQPPKLLIYLASNLESGVPARFSGSGSRTDFTLTIDPVEADDAATYYCQQNNEDPFTFGSGTKLEIKRADAAPNIQMTQTTSSLSASLGDRVTISCRASQDISNCLNWYQQKPDGTVKLLIYYTSRLHSGVPSRFSGSGSGTDYSLTISNLEQEDIATYFCQQGKTLPYAFGGGTKLEINRTVAAPSVFIFPPSDEQLKSGTASVVCLLNNFYPREAKVQWKVDNALQSGNSQESVTEQDSKDSTYSLSSTLTLSKADYEKHKVYACEVTHQGLSSPVTKSFNRGEC
notes: 13F5.G5 V - linker (heavy AKTTPP, light ADAAP) - 3D12.E3 V, human Cγ1/Cκ
